This note sets out measurements from US20090062512A1, “Comparative ligand mapping from MHC class I positive cells” (priority 2000, published 2009).

In the first test the target is sHLA-A*0201 from MCF-7, MDA-MB-231, BT-20 and MCF10A (Homo sapiens, UniProt P04439, D140Y/D185E/D98H/E176V/E277Q/G131W/G231S/I119V/I121R/I166T/I218V/L300P/L318F/N151K/N90K/P208A/P217A/Q86G/Q94H/R138H/R169H/T345S). The experiment in a line: MS comparative analysis of sHLA-A*0201 peptides, breast cancer cell lines vs nontumorigenic MCF10A. Particulars: MCF-7, MDA-MB-231, BT-20 vs MCF10A. In kind it is cell-based.
Regarding GLIEKNIEL (listed as Homo sapiens), the “presentation by HLA A*0201 of tumorigenic vs nontumorigenic cell lines” value is recorded as “shared by all 4 cell lines”. Still for that read-out and setting: under LLQEVEHQL (listed as Homo sapiens) stands “found only in the MCF-7 peptide pool”.

Staying with this test, now noted: peptide epitope presented on sHLA-A*0201; BT-20 vs nontumorigenic MCF10A.
For the substance AQYEHDLEVA, the “FOLD INCREASE BT-20 over MCF10A” value is 8. The same measure, in the same setting: as for KILDLETQL, the figure is 7; as for SLFGGSVKL, 1.3. Still for that read-out and setting: as for SLFPGKLEV, the figure is 2; as for SLLEKSLGL (listed as Homo sapiens), “None”; as for TLYEAVREV, 7.9.

Staying with this test, now noted: peptide epitope presented on sHLA-A*0201; MCF-7 vs nontumorigenic MCF10A.
Turning to AQYEHDLEVA, the “FOLD INCREASE MCF-7 over MCF10A” value is reported as 34. On the same count and under the same terms, under KILDLETQL stands 9; under SLFGGSVKL, 5. Still for that read-out and setting: under SLFPGKLEV stands 5; under SLLEKSLGL (listed as Homo sapiens), 7.9. Same read-out and setting: under TLYEAVREV stands “None”.

The test is the same for the next values; noted with them: peptide epitope presented on sHLA-A*0201; MDA-MB-231 vs nontumorigenic MCF10A.
In the case of AQYEHDLEVA, the “FOLD INCREASE MDA-MB-231 over MCF10A” value was determined as 2. On the same count and under the same terms, as for KILDLETQL, the figure is 1.4; as for SLFGGSVKL, 2.6; as for SLFPGKLEV, 2.2. Still for that read-out and setting: as for SLLEKSLGL (listed as Homo sapiens), the figure is 7.4; as for TLYEAVREV, 2.3.

The target of the next test is A*0201 class I MHC molecules in cells infected with the PR8 strain of influenza A virus (Homo sapiens, UniProt P04439, D140Y/D185E/D98H/E176V/E277Q/G131W/G231S/I119V/I121R/I166T/I218V/L300P/L318F/N151K/N90K/P208A/P217A/Q86G/Q94H/R138H/R169H/T345S).
Experiment: not given
It counts as cell-based.
Details: not given
For the substance GLIEKNIEL (listed as Homo sapiens), the “Fold Increase” value stood at 1.58.

In the case of SLLEKSLGL (listed as Homo sapiens), the “Fold Increase” value was 1.64. Take VMDSKIVQV: the “Fold Increase” value is recorded as 22.84. Turning to VVQDGIVKA, the “Fold Increase” value was “Unique”. Same read-out and setting: as for YAYDGKDYI, the entry is “Unique”; as for YAYDGKDYIA, 1.6; as for YLDIKGLLDV, 2.44.

Take YLDKVRALE: the “Fold Increase” value was “Unique”. The same measure, in the same setting: as for YMEEIYHRI, the figure is 3.98.

The next test concerns the target B*0702 class I MHC molecules in cells infected with the PR8 strain of influenza A virus (Homo sapiens, UniProt P01889).
Experiment: not given
In kind it is cell-based.
Details: not given
Regarding AARPATSTL, the “Fold Increase” value is reported as 5.1. Still for that read-out and setting: as for APAGRKVGL, the figure is 1.5.

Consider APGAPPRTL, for which the “Fold Increase” value amounted to 1.5. Same read-out and setting: as for APKIGPLGL, the figure is 1.54. On the same count and under the same terms, as for APKRPPSAF, the figure is 1.82; as for APNRPPAAL, 1.5. The same measure, in the same setting: as for APPPPPKAL, the figure is 2.29. As for APRGTGIVSA, the “Fold Increase” value was found to be 2.2. For APRPPPKM, the “Fold Increase” value is listed as 2.9. For APRPVAVAV, the “Fold Increase” value amounted to 1.5. On the same count and under the same terms, under ARPATSL stands 2.2; under DPMKARVVL, 1.87.

For EPRPPHGEL, the “Fold Increase” value amounted to 2.7. Turning to GPPGTGKTAL, the “Fold Increase” value came to 1.5. Still for that read-out and setting: under GPREAFRQL stands 6.03; under GPRSSLRVL, 3.16. Still for that read-out and setting: as for GPYPYTL, the figure is 2.01.

For HLNEKRRF, the “Fold Increase” value came to 2.02. For the substance IPSIQSRGL, the “Fold Increase” value is recorded as 1.6. Same read-out and setting: as for ITAPPSRVL, the figure is 1.98; as for KPQDYKKR, 2.9; as for LLPGENINLL, 7.13. The same measure, in the same setting: under LPKPPGRGV stands 1.9; under LPRGSSPSVL, 1.57. The same measure, in the same setting: as for LPSSGRSSL, the figure is 2; as for LVFQPVAEL, 4.33. Consider NLGSPRPL, for which the “Fold Increase” value came out at 5.6.

For the substance NLPLSNLAI, the “Fold Increase” value came to 4.3. On the same count and under the same terms, as for NPASKVIAL, the figure is 1.64; as for PKFEVIEKPQA, 3.6. Same read-out and setting: under RIVPRFSEL stands 1.54; under RPAGKGSITI, 1.8; under RPGLKNNL, 1.5. As to RPKANSA, the “Fold Increase” value is recorded as 1.8. On the same count and under the same terms, under RPPPIGAEV stands 2.9; under RPQGGQDIL, 2.24. The same measure, in the same setting: as for RPSGKGIVEF, the figure is 13.7; as for RPTGGVGAV, 2.7. On the same count and under the same terms, as for RVEPLRNEL, the figure is 1.95.

As for SPAKIHVF, the “Fold Increase” value is recorded as 2.8. On the same count and under the same terms, under SPGIPNPGAPL stands 1.84. The same measure, in the same setting: as for SPGPPTRKL, the figure is 1.9.

In the case of SPKIRRL, the “Fold Increase” value is reported as 1.63.

As for SPPSKPTVL, the “Fold Increase” value is given as 1.9. Same read-out and setting: as for SPQEDKEVI, the figure is 4.19.

In the case of SPRSGLIRV, the “Fold Increase” value was 1.53. As for SPVPSRPL, the “Fold Increase” value was determined as 2.91. Still for that read-out and setting: as for TPEQIFQN, the figure is 1.51; as for TQFVRFDSD, 1.64; as for VFLKPWI, 1.62. Still for that read-out and setting: as for YPFKPPKVAF, the figure is 3.27; as for YPKRPLLGL, 1.61; as for YQFTGIKKY, 2.3.

The test is the same for the next values; noted with them: PR8B0702: presentation by sHLA B*0702, influenza PR8 infected vs uninfected cells.
For APEEHPVLL (listed as Homo sapiens), the “Fold Increase” value is 1.92. On the same count and under the same terms, under GPLDIEWLI (listed as Homo sapiens) stands 2.2.

The next test addresses A*0201 class I MHC molecules in cells infected with the West Nile virus (Homo sapiens, UniProt P04439, D140Y/D185E/D98H/E176V/E277Q/G131W/G231S/I119V/I121R/I166T/I218V/L300P/L318F/N151K/N90K/P208A/P217A/Q86G/Q94H/R138H/R169H/T345S).
Experiment: not given
In kind it is cell-based.
Details: not given
On to ATWAENIQV, for which the Fold Increase entry is on record as “Unique”. The same measure, in the same setting: under FLKEPALNEA stands “Unique”. Still for that read-out and setting: as for KIVVVTAGV, the entry is “Unique”.

As for LDQSVTHL, the Fold Increase entry is reported as “Unique”. Same read-out and setting: under LLDVPTAA stands “Unique”. Still for that read-out and setting: under NLMHISYE stands “Unique”. Same read-out and setting: under RLDDDGNFQL stands “Unique”.

Consider SLFGQRIEN, for which the Fold Increase entry is “Unique”. Same read-out and setting: as for SVGGVFTSV, the entry is “Unique”; as for VLDELKVA, “Unique”. Still for that read-out and setting: as for YTMDGEYRL, the entry is “Unique”.
